# In IntAct's records for PubMed 21850687:
# B1: Thioredoxin-dependent peroxide reductase, mitochondrial (Homo sapiens), P30048 (parent)
# chain: MAAAVGRLLRASVARHVSAIPWGISATAALRPAACGRTSLTNLLCSGSSQAKLFSTSSSCHAPAVTQHAPYFKGTAVVNGEFKDLSLDDFKGKYLVLFFYPLDFTFVCPTEIVAFSDKANEFHDVNCEVVAVSVDSHFSHLAWINTPRKNGGLGHMNIALLSDLTKQISRDYGVLLEGSGLALRGLFIIDPNGVIKHLSVNDLPVGRSVEETLRLVKAFQYVETHGEVCPANWTPDSPTIKPSPAASKEYFQKVNQ
# Variants of: B1
# Details: with lrrk2_human LRRK2, Q5S007
# Chain of lrrk2_human LRRK2, Q5S007 (Q5S007 whole entry): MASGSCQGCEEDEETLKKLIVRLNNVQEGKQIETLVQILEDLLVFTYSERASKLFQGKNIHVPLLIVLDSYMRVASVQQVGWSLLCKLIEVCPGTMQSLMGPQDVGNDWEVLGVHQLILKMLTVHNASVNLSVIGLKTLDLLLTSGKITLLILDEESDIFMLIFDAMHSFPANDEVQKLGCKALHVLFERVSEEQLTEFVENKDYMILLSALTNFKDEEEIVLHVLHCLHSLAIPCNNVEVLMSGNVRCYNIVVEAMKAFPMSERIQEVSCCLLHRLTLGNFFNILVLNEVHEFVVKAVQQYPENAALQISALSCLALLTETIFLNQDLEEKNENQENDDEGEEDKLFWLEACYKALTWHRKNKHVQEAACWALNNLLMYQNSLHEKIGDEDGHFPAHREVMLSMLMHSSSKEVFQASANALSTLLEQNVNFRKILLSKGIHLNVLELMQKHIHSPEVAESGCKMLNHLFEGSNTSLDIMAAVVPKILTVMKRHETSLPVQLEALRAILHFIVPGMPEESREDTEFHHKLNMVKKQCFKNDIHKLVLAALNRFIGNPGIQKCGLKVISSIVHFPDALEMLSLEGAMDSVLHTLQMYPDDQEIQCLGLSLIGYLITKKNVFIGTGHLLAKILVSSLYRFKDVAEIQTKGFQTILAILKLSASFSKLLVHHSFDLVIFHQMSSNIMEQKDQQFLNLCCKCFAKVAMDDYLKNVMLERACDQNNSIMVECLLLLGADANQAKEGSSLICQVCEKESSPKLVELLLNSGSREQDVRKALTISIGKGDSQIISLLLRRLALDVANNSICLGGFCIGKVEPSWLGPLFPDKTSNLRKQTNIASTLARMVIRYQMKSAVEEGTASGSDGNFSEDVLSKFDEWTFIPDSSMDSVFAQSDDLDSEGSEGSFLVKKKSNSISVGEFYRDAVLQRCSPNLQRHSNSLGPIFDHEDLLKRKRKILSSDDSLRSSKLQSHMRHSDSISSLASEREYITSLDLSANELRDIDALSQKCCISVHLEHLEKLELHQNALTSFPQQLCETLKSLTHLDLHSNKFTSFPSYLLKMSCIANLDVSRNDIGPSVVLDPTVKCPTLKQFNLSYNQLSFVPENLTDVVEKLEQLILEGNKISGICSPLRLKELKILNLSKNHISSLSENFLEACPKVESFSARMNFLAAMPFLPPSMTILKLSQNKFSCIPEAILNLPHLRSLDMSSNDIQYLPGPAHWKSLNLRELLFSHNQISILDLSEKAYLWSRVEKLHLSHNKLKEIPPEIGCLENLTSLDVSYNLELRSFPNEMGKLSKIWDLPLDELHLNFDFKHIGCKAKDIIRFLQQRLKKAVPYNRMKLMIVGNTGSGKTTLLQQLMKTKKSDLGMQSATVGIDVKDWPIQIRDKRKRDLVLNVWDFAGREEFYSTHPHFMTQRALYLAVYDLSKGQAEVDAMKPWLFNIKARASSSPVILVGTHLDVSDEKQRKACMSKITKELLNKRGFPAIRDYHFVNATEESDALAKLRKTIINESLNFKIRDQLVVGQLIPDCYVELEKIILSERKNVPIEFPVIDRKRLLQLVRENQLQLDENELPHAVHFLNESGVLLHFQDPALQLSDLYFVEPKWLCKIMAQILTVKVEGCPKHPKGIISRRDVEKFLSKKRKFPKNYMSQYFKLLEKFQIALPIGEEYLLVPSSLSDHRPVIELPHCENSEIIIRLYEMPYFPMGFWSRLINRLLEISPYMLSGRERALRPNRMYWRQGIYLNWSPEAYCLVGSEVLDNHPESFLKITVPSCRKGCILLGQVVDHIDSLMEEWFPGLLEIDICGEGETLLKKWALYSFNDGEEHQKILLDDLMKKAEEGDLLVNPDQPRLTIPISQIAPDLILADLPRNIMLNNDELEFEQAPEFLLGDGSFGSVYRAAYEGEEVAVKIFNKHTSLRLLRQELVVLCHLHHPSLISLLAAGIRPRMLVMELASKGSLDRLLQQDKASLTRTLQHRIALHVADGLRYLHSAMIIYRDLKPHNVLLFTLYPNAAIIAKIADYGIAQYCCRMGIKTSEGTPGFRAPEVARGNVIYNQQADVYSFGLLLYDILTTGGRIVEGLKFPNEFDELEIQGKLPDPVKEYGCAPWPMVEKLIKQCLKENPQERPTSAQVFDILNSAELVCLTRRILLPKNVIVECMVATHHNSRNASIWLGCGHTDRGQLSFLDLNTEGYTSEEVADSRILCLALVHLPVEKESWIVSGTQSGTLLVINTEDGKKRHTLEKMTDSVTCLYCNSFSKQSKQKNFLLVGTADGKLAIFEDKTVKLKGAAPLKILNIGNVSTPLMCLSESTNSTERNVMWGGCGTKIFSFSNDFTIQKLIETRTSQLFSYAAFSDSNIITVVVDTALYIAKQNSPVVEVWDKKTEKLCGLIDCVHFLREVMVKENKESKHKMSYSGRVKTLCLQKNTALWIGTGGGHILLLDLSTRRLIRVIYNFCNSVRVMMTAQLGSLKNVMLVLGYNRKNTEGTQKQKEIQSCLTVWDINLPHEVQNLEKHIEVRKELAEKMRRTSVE
row,effect of a mutation on the interaction,Variant
1,disrupting interaction,MAAAVGRLLRASVARHVSAIPWGISATAALRPAACGRTSLTNLLCSGSSQAKLFSTSSSCHAPAVTQHAPYFKGTAVVNGEFKDLSLDDFKGKYLVLFFYPLDFTFVCPTEIVAFSDKANEFHDVNCEVVAVSVDSHFSHLAWINAPRKNGGLGHMNIALLSDLTKQISRDYGVLLEGSGLALRGLFIIDPNGVIKHLSVNDLPVGRSVEETLRLVKAFQYVETHGEVCPANWTPDSPTIKPSPAASKEYFQKVNQ [T146A]
